Laboratory results as given in the RNAGym collection of RNA variant scans (doi:10.1093/molbev/msab373).

B1: Azoarcus group I ribozyme (parent)
chain: GUGCCUUGCGCCGGGAAACCACGCAAGGGAUGGUGUCAAAUUCGGCGAAACCUAAGCGCCCGCCCGGGCGUAUGGCAACGCCGAGCCAAGCUUCGGCGCCUGCGCCGAUGAAGGUGUAGAGACUAGACGGCACCCACCUAAGGCAAACGCUAUGGUGAAGGCAUAGUCCAGGGAGUGGCGAAAGUCACACAAACCGG

Variants of: B1
Assay: reverse-splicing fitness (ratio to wild type); higher = more active; in vitro selection; Mg2+ level not given
Summary of the method: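 An in vitro group I ribozyme library with randomized positions was T7-transcribed and gel-purified. In triplicate, 10 pmol RNA in EPPS pH 7.5 was reacted with 50 pmoles of a 30-nt RNA substrate for 1 h at 37 °C across several added MgCl2 levels (1–48 mM), then stopped with EDTA. Products were reverse transcribed from a substrate-complementary primer, PCR-amplified and sequenced (HiSeq 4000). Fitness is a variant's read proportion after selection over that before, normalised to wild type.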

Variant | reverse-splicing fitness
GUGCCUUGCGCCGGGAAACCACGCAAGGGAUGGUGUCAAAUUCGGCGAAACCUAAGCGCCCGCCCGGGCGUAUGGCAACGCUGAGCCAAGCUUCGGCGCCUGCGCCGAUGCAGGUGUAGUGACUAGACGGCACCCACCUAAGGCGAACGAUAUGGUGAAGGCAUAGUCUAGGGAGCGGCGAAAGUCACACAAACCGG [C82U A111C A120U A145G C150A C169U U176C] | 0.00385
GUGCCUUGCGCCGGGAAACCACGCAAGGGAUGGUGUCAAAUUCGGCGAAACCUAAGCGCCCGCCCGGGCGUAUGGCAACGCUGAGCCAAGCUUCGGCGCCUGCGCCGAUGCAGGUGUAGUGACUAGACGGCACCCACCUAAGGCGAACGAUAUGGUGAAGGCAUAGUCUAGGGAGGGGCGAAAGUCACACAAACCGG [C82U A111C A120U A145G C150A C169U U176G] | 0.00293
GUGCCUUGCGCCGGGAAACCACGCAAGGGAUGGUGUCAAAUUCGGCGAAACCUAAGCGCCCGCCCGGGCGUAUGGCAACGCUGAGCCAAGCUUCGGCGCCUGCGCCGAUGCAGGUGUAGUGACUAGACGGCACCCACCUAAGGCGAACGAUAUGGUGAAGGCAUAGUCCAGGGAGAGGCGAAAGUCACACAAACCGG [C82U A111C A120U A145G C150A U176A] | 0.00653
GUGCCUUGCGCCGGGAAACCACGCAAGGGAUGGUGUCAAAUUCGGCGAAACCUAAGCGCCCGCCCGGGCGUAUGGCAACGCUGAGCCAAGCUUCGGCGCCUGCGCCGAUGCAGGUGUAGUGACUAGACGGCACCCACCUAAGGCGAACGAUAUGGUGAAGGCAUAGUCCAGGGAGCGGCGAAAGUCACACAAACCGG [C82U A111C A120U A145G C150A U176C] | 0.00717
GUGCCUUGCGCCGGGAAACCACGCAAGGGAUGGUGUCAAAUUCGGCGAAACCUAAGCGCCCGCCCGGGCGUAUGGCAACGCUGAGCCAAGCUUCGGCGCCUGCGCCGAUGCAGGUGUAGUGACUAGACGGCACCCACCUAAGGCGAACGAUAUGGUGAAGGCAUAGUCCAGGGAGGGGCGAAAGUCACACAAACCGG [C82U A111C A120U A145G C150A U176G] | 0.00319
GUGCCUUGCGCCGGGAAACCACGCAAGGGAUGGUGUCAAAUUCGGCGAAACCUAAGCGCCCGCCCGGGCGUAUGGCAACGCUGAGCCAAGCUUCGGCGCCUGCGCCGAUGCAGGUGUAGUGACUAGACGGCACCCACCUAAGGCGAACGGUAUGGUGAAGGCAUAGUCCAGGGAGUGGCGAAAGUCACACAAACCGG [C82U A111C A120U A145G C150G] | 0.00805
GUGCCUUGCGCCGGGAAACCACGCAAGGGAUGGUGUCAAAUUCGGCGAAACCUAAGCGCCCGCCCGGGCGUAUGGCAACGCUGAGCCAAGCUUCGGCGCCUGCGCCGAUGCAGGUGUAGUGACUAGACGGCACCCACCUAAGGCGAACGGUAUGGUGAAGGCAUAGUCAAGGGAGUGGCGAAAGUCACACAAACCGG [C82U A111C A120U A145G C150G C169A] | 0.00772
GUGCCUUGCGCCGGGAAACCACGCAAGGGAUGGUGUCAAAUUCGGCGAAACCUAAGCGCCCGCCCGGGCGUAUGGCAACGCUGAGCCAAGCUUCGGCGCCUGCGCCGAUGCAGGUGUAGUGACUAGACGGCACCCACCUAAGGCGAACGGUAUGGUGAAGGCAUAGUCAAGGGAGAGGCGAAAGUCACACAAACCGG [C82U A111C A120U A145G C150G C169A U176A] | 0.0114
GUGCCUUGCGCCGGGAAACCACGCAAGGGAUGGUGUCAAAUUCGGCGAAACCUAAGCGCCCGCCCGGGCGUAUGGCAACGCUGAGCCAAGCUUCGGCGCCUGCGCCGAUGCAGGUGUAGUGACUAGACGGCACCCACCUAAGGCGAACGGUAUGGUGAAGGCAUAGUCAAGGGAGCGGCGAAAGUCACACAAACCGG [C82U A111C A120U A145G C150G C169A U176C] | 0.00788
GUGCCUUGCGCCGGGAAACCACGCAAGGGAUGGUGUCAAAUUCGGCGAAACCUAAGCGCCCGCCCGGGCGUAUGGCAACGCUGAGCCAAGCUUCGGCGCCUGCGCCGAUGCAGGUGUAGUGACUAGACGGCACCCACCUAAGGCGAACGGUAUGGUGAAGGCAUAGUCAAGGGAGGGGCGAAAGUCACACAAACCGG [C82U A111C A120U A145G C150G C169A U176G] | 0.00495
GUGCCUUGCGCCGGGAAACCACGCAAGGGAUGGUGUCAAAUUCGGCGAAACCUAAGCGCCCGCCCGGGCGUAUGGCAACGCUGAGCCAAGCUUCGGCGCCUGCGCCGAUGCAGGUGUAGUGACUAGACGGCACCCACCUAAGGCGAACGGUAUGGUGAAGGCAUAGUCGAGGGAGUGGCGAAAGUCACACAAACCGG [C82U A111C A120U A145G C150G C169G] | 0.00651
GUGCCUUGCGCCGGGAAACCACGCAAGGGAUGGUGUCAAAUUCGGCGAAACCUAAGCGCCCGCCCGGGCGUAUGGCAACGCUGAGCCAAGCUUCGGCGCCUGCGCCGAUGCAGGUGUAGUGACUAGACGGCACCCACCUAAGGCGAACGGUAUGGUGAAGGCAUAGUCGAGGGAGAGGCGAAAGUCACACAAACCGG [C82U A111C A120U A145G C150G C169G U176A] | 0.00829
GUGCCUUGCGCCGGGAAACCACGCAAGGGAUGGUGUCAAAUUCGGCGAAACCUAAGCGCCCGCCCGGGCGUAUGGCAACGCUGAGCCAAGCUUCGGCGCCUGCGCCGAUGCAGGUGUAGUGACUAGACGGCACCCACCUAAGGCGAACGGUAUGGUGAAGGCAUAGUCGAGGGAGCGGCGAAAGUCACACAAACCGG [C82U A111C A120U A145G C150G C169G U176C] | 0.00782
GUGCCUUGCGCCGGGAAACCACGCAAGGGAUGGUGUCAAAUUCGGCGAAACCUAAGCGCCCGCCCGGGCGUAUGGCAACGCUGAGCCAAGCUUCGGCGCCUGCGCCGAUGCAGGUGUAGUGACUAGACGGCACCCACCUAAGGCGAACGGUAUGGUGAAGGCAUAGUCGAGGGAGGGGCGAAAGUCACACAAACCGG [C82U A111C A120U A145G C150G C169G U176G] | 0.00376
GUGCCUUGCGCCGGGAAACCACGCAAGGGAUGGUGUCAAAUUCGGCGAAACCUAAGCGCCCGCCCGGGCGUAUGGCAACGCUGAGCCAAGCUUCGGCGCCUGCGCCGAUGCAGGUGUAGUGACUAGACGGCACCCACCUAAGGCGAACGGUAUGGUGAAGGCAUAGUCUAGGGAGUGGCGAAAGUCACACAAACCGG [C82U A111C A120U A145G C150G C169U] | 0.0067
